The record followed here is the nanobody polyreactivity screen of Harvey et al. (2022).

A short description of this data set: yeast display, Sf9 membrane polyspecificity reagent, FACS + sequencing; frameworks hold sequencing errors. The essentials: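 Galactose induction of a Saccharomyces cerevisiae BJ5465 synthetic nanobody display library ran 36–48 hours. The cells were then stained for 1 hour at 4 °C with 10% biotinylated, detergent-solubilized Sf9 membrane reagent, pulled down on streptavidin microbeads and FACS-sorted into low and high (top ~1%) gates on expression and reagent-binding fluorescence. Labels for polyreactivity follow the gate of origin.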
Turning to “QVQLVESGGGLVQAGGSLRLSCAASGFTFWRNVMGWYRQAPGKERELVAVISRGGSTNYADSVKGRFTISRDNAKNTVYLQMNRLKPEDTAVYYCPKYARGPSKVDYWGQGTQVTVSS”, the “polyreactivity (PSR sort gate)” value is reported as “high polyreactivity”.
The entry for “QVQLVESGGGLVQAGGSLRLSCAASGNTFAGYAMGWYRQAPGKEMEWVAAISTRGGITYYADSVKGRFTISRDNAKNTVYLQMNCLKPEDTAVYYCAAEFYYPWTYCSCDGRRVYYWGQGTQVTVSS” is “high polyreactivity”.
In the case of “QVQLVESGGGLVQAGGSLRLSCAASGFTFVSYAMGGYRQAPGKERELVASISSGGSTYYADSVKGRFTISRDNAKNTVYLQMNSLKPEDTAVYYCAAYSRWGRWFTIYNYWGQGTQVTVSS”, the “polyreactivity (PSR sort gate)” value is on record as “high polyreactivity”.
With “QVQLVESGGGLVQAGGSLRLSCAASGSTFNIYTMGWYRQAPGKERELVARITFSGGSTYYADSVKGRFTISRDNAKNTVYLQMNSLKPEDTAVYYCAVRVYRVDHFGYDYWGQGTQVTVSS”, the “polyreactivity (PSR sort gate)” value is “high polyreactivity”.
Take “QVQLVESGGGLVQAGGSLRLSCAASGRTFYPYAMGWSRQAPGKERELVAAISWNGGRTYYADSVKGRFTISRDNAKNTVYLQMNSLKPEDTAVYYCAADTAYYDFDYWGQGTQVTVSS”: the “polyreactivity (PSR sort gate)” value was “low polyreactivity”.
The value for “QVQLVESGGGLVQAGGSLRLSCAASGITFYGNAMGWYRQAPGNERELVAAITFSGGITYYADSVKGRFTISRDNAKNTVYLQMNSLKPEDTAVYDCATDPIGGWTRPQRYGDDYWGQGTQVTVSS” was “low polyreactivity”; that for “QVQLVESGGGLVQAGGSLRLSCAASGFTNSMGWYRQAPGKERELVAAISYSGDSTNYADSVKGRFTISRDNAKNTVYLQMNSLKPQDTAVYYCNASSPYDYDWGQGTQVTVSS” was “low polyreactivity”; that for “QVQLVESGGGLVQAGGSLRLSCAASGFTFARYAMGWYTKAPGKERELVARISSDGGGTDYADSVKGRFTISRDNAKNTVYLQMNSLKPEDTAVYYCAARFPGYHYFKYYYWGQGTQVTVSS” was “low polyreactivity”.
As to “QVQIVESGGGLVQAGGSLRLSCADSGTTFRFNAIGWSRQAPGKERELVAAITGIGGITYYADSVKGRFTISRDNAKNTVYLQMNSLKPEDTAVYYCNAVAARYSVRNGYSTHYDYWGQGTQVTVSS”, the “polyreactivity (PSR sort gate)” value is listed as “high polyreactivity”.
For “QDQLGDSGGGLVQAGGSLRLSCAASGLTFYRYAMGWYRQAPGKERELVAAIRWNSGSTYYADSVKGRFTISRVNAKNTVYLQMNSLKPEDTAVYYCAATAIYPSAWRMAYWGQGTQVTVSS”, the “polyreactivity (PSR sort gate)” value was “high polyreactivity”.
In the case of “QDQLVESGGGLVQAGGSLRLSCASSGLIFYTSSMGWYSQAPGKESGLVAAITRSDSSTYYADSVKGRFTISRDNATNTVYLQMTSLKPEDPAVYYFATPSVFLFSEYDYWGQGTKVTVSS”, the “polyreactivity (PSR sort gate)” value was “low polyreactivity”.
The value for “QVQLVESGGGLVQAGGSLRLSCAASGFIFPTNVMGWYRQAPGKEREFVASITWRGGGTYYADSVKGRFTISRDNAKNTVYVQMNSLKPEDTAVYYCAAGRSWSSYWKYDYWGQGTQVTVSS” was “low polyreactivity”; that for “QVQLVESGGGLVQAGGSLRLSCAASGSIFGYYAMGWYRQAPGKERELVASISGSGGTTYYADSVKGRFTISRDNAKNTVYLQMNSLKPEDTAVYYCAARRSMYGYPFVTSRRGYWGHGTQVTVSS” was “high polyreactivity”; that for “QVQLVESGGGLVQAGGTLRLSCAASGSIFAGYAMGWYRQAPGKVRELVATITSGGSTNYADSVKGRFTISRDNAKNTVYLQMNSLKPEETAVYYCAADVEDSIATSYTCGEYVYWGQGTQVTVSS” was “low polyreactivity”.
Turning to “QVQLVESGGGLVQAGGSLRLSCAASGSTFYHNAMGWYRPAPGKERELVAAISRADVSTYYADSVKGRFTISRDNAKNTVYLQMNSLKPEDTAVYFGAAYWYGSQYKWRYDYWGQGTQVTVSS”, the “polyreactivity (PSR sort gate)” value is recorded as “low polyreactivity”.
For the sequence “QVQLVESGGCLVQAGGSLRLSCAASGSIFDSNAMGWYRQAPGKERELVAAITWSGGRTYYADSVKGRFTISLDNAKNTVYLQMNSLKPEDTAVYYCAARKYTLFWPYDYWGQGTQVTVSS”, the “polyreactivity (PSR sort gate)” value was “high polyreactivity”.
Regarding “QVQLVESGGGLVQAGGSRRLSWAASGFIFARNTMGWYRQAPGTERELVAAITKSGGSTYYADSVKGRFTISRDNAKNTVYLQMNILKPEDTAVYYCGARSYTLRGVYFSGYDYWGQGTQVTVSS”, the “polyreactivity (PSR sort gate)” value is reported as “low polyreactivity”.
For the sequence “QVQLVESGGGLVQAGGSLRLSCAASGRTFEHYAMGWYRQAPGKERELVAAINSSDGGTYYADSVKGRITISRDNPKNTVYLQMNSLKPEDTAVYYCAAAEFGSVPGYEMDYWGQGTQVTVSS”, the “polyreactivity (PSR sort gate)” value is “low polyreactivity”.
The entry for “QVQLVESGGGLVQAGGSLRLSCAASGIIFNTYAMGWYRQAPGKERELVAAISSSGGRTYYADSVKGRFTISRDHAKNTVYLQMNSLTPEDTAVYNCNKVQNRGPRTNARKFDYWGQGTQVTVSS” is “high polyreactivity”; for “QVQLVESGGGLVQAGGSLRLSCAASGSIFSFNAMGWYRPAPGKERELVAAISKSGGRTYYADSVKGRFTISRDNAKNTVYLQMNSLKPEDTAVYYCNVVSYYLYTPGDYWGQGTQVTVSS” it is “high polyreactivity”.
Regarding “QVQLVESGGGLVQAGGSLRLSCAASRFTFSGYAMGWYRQAPGKERELVATISSSGSTYADSVKGRFTISRDNAKNTVYLQMNSLKPEDTAVYYCAKRVPFFDYWGQGTQVTVSS”, the “polyreactivity (PSR sort gate)” value is recorded as “low polyreactivity”.
Regarding “QVKLVESGGGLVQAGGSLRLSCAASGRTFASNAMGWYRQAPGKERELVADISSSGGTTYYADSVKGRFTISRDNAKNTVYLQMNSLKPEDTAVYYCAAVSSQDDPVKAWDYEYWGQGTQVTVSS”, the “polyreactivity (PSR sort gate)” value is “low polyreactivity”.
“QVQLVESGGGLVQAGGSLRLSCAASGITSSIYAMGWDRQAPGKERELVAVSTTSGGSTYYADSVKGRYTISRDNAKNTVYLQMNSLKPEDTAVYYCAADSYFYLDLLEDYWGQGTKVTVSS”: the “polyreactivity (PSR sort gate)” value is “low polyreactivity”.
For “QVQLVESGGGLVQAGGSLRLSCAASGSIFYWYAMGWYRQAPGKEREFVAGITGRGGSTYYADSVKGRFTISRDNAKNTVYLQMNSLKPEDTAVYYADFVKYGKYYQRYDYWGQGTQVTVSS”, the “polyreactivity (PSR sort gate)” value is given as “high polyreactivity”.
In the case of “QVQLVESGGGLVQAGGSLRLSCAASGFTFYRNAMGWSRQAPGKERELVARIRGTGGRTYYADSVKGRFTISRDNAKNTVYLQMNSLKPEDSAVYYCARRYHYSLYGYWGQGTQVTVSS”, the “polyreactivity (PSR sort gate)” value is “high polyreactivity”.
The entry for “QVQLVESCGGLVQAGGSLRLSCAASGLTFPKYAMGWYRQAPGKERELVARISYSGASTYYADSVKGRFTISRDNAKNTVYLQMNSLKPEDTAVYYCAARIYRVYYVHFAPYYYWGQGTQVTVSS” is “high polyreactivity”; for “QVQLVESGRGLVQAGGSLRLSCAASGRIFKAYAMGWYRQATGKERELVAAITRGGRTKYADSVKGRFTISRDNAKNTVYLQMNSLKPEDTAVYYCAAELPGGYLVDYDYWGHGTQVTVSS” it is “high polyreactivity”; for “QVQLVESGGGLVQAGGSLRLSCAASGSTFPKYAMGWYRQAPGKERELVAVITSGGSTYYADSVMGRFTISRDNAKNTVYLQMNSLKPEDTAVYYCAARKYRRFDYWGQGTQVTVSS” it is “high polyreactivity”.
Consider “QVQLVESGGRLVQAGGSLRLSCAASGLILLPNTMGWYRQAPGKESEMVAAISYSGGGTYYADSVKARFTISRDNAKNSVYLQMNSLKPEDTAVYYCAAYVKRESAPYGYWGQGTQVTVSS”, for which the “polyreactivity (PSR sort gate)” value was “low polyreactivity”.
On to “QVQLVESGGGLVQAGGSLRLSCAASGYIFYVYAMGWYRQAPGKERELVAAINSGDITYYADSVKGRFTISRDNAKNTVYLQMNSLKPEDTAVYYCATVLILIYDYWGQGTQVTVSS”, for which the “polyreactivity (PSR sort gate)” value is listed as “low polyreactivity”.
With “QVQLVESGGGLVQAGGSLRLSCAASVSIFDLYAMRWYIQAPGKERELVAAISWSDSRTYYADSVKGRFTISRDNATNTVYLQKNSLKPEDTAVYYCAADYRYPDNYGGYDYWGQGTQLTVSS”, the “polyreactivity (PSR sort gate)” value is reported as “low polyreactivity”.
For “QVQLVESGGGLVQAGGSLRLSCAASGYIFKSYVMGWYRQAPGKERELVAAISWGGGRTYYADSVKGRFTISRDNAKNTVYLQMNSLKPEDTAVYYCAADTKVGNGIKFDYWGQGTQVTVSS”, the “polyreactivity (PSR sort gate)” value is reported as “high polyreactivity”.
As for “QVQLVESGGGLVQAGGSLRLSCAASGRIYAMGWYRQAPGKERELVAAISRGGSTYYADSVKGRFTISRDNAKNTVYLQKNSLKPEDTAVYYCNRKSYRLRWKVRGQYLLGYDWGQGTQVTVSS”, the “polyreactivity (PSR sort gate)” value was “high polyreactivity”.
As for “QVQLVESGGGLVQAGGSLRLSCAASGSTLGVYAMGWYRQAPGKERELVAAISSGGSTTYADSVKGRFTISRDNAKNTDYLQMNSLKPEDTAVYYCAATNVRGVYYWGQGTQVTVSS”, the “polyreactivity (PSR sort gate)” value was “high polyreactivity”.
As to “QVQLLESGGALVQAAGSLRLSCAASGYTIGRYAIGWYRHAPGKDRELVAAITWSGGSTYYADSVKGRFTISRDNAKNTVYLQMNSLKPEDTAVYYCAKRYRYYSYGPYGMYYWGQGTQVSVSS”, the “polyreactivity (PSR sort gate)” value is listed as “high polyreactivity”.
For “QVQLQESGGGLVQAGGSLRPSCAASGSISDGVRMGWYRQAPGEEGELVATTVLGATTNYADSVKGRFTISRGNAKNTVYLLMTSLKAEATAVYYCAAPLRYDKGFSYWGQGTQVTVSS”, the “polyreactivity (PSR sort gate)” value is “low polyreactivity”.
Take “QVQLVESGGGLVQAGGSLRLSCAASGSISKINAMGWYRQAPGKESELGAAINTGDSTYYADSVKGRFTISRDNAKNTVYLQMNSLKPEDTAVYYCAAEGSPTGYDDWGQGTQGTVSS”: the “polyreactivity (PSR sort gate)” value is recorded as “low polyreactivity”.
Turning to “QVQLVESGGGLVQAGGSLRLTCAASGLTFNYYAMGWYRQAPGKERELVAAISSDGRTDYADSVKGRFTISRDNAKNTVYLQMNSLKPEDTAVYYCAASWYRWGKSWRQYDYWGQGTQVNVSS”, the “polyreactivity (PSR sort gate)” value was “low polyreactivity”.
The entry for “QVQLVESGGGLVQAGGSLPLSSAASGLIFSWYAMGWYRQAPAKDSELVAAIDQSGDSTYYADSVKGRFTISRDNAKNTVYLQMNSLKPEDTAVYYCAAQSYDYWYDYDYWGQGTQVTVSS” is “high polyreactivity”; for “QVQLVESGRGLVQAGGSLRLSCAASGSIFYDNAMGWYRQAPGKDRELVAAISYSGDSTYYADSVKGRFTISHDNAKNTVYLQMNSLKPEDTAVYYCAADYYGIYYSGTSEYWGQGTQVTVSS” it is “low polyreactivity”; for “QVQLVESGGGLVQAGGSLRLSCAASGSIFYHYAMGWYRQAPGKERELVAGITSSGDRTHYADSVKGRFTISRDNAKNTVYLQMNSLKPEDTAVYYCNTATIHGTAYDYWGQGTQVTVSS” it is “low polyreactivity”.
